This assay concerns the target dynamic microtubules grown from GMPCPP-stabilized seeds (UniProt Q6B856). The assay is described as follows: optical trap rupture force assay.
Chain of UniProt Q6B856 (Q6B856 whole entry, looked up): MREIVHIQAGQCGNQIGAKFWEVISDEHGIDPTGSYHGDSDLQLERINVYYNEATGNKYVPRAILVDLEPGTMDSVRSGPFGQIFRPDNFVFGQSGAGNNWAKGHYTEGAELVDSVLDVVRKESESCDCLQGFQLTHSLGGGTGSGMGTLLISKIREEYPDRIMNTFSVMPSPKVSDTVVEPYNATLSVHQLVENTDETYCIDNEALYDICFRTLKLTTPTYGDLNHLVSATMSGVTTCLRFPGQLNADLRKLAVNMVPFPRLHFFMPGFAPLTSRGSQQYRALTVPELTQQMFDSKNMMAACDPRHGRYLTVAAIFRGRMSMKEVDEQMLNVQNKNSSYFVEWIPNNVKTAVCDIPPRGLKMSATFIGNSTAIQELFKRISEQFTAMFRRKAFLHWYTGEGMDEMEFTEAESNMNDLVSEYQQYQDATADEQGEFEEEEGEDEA

Turning to “dad1-1 kinetochore particles (from UniProt P40568 1-576) (complex)”, the mean rupture force worked out at 2.7 pN.
